Reference: publication PMC7772773

Molecular target: T1, EGFP-RABL2B, Q9UNT1
T1 chain: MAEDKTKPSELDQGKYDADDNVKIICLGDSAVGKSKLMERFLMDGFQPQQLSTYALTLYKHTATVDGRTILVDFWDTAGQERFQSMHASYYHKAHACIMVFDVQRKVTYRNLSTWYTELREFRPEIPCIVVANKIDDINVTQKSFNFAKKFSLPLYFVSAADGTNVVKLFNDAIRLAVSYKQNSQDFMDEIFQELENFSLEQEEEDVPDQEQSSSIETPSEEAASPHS
Test: co-immunoprecipitation (IP anti-EGFP, Western blot anti-Myc), IP/input band quantitation
Conditions: chain shown with the change; lysates from HEK293T cells; Input is 2.5% of lysate used for IP; parent: 100

B1: CD8α-(HTR6-CT)-myc, Q9R1C8 L398A; L399A; L400A (protein)
chain: MVPEPGPVNSSTPAWGPGPPPAPGGSGWVAAALCVVIVLTAAANSLLIALICTQPALRNTSNFFLVSLFTSDLMVGLVVMPPAMLNALYGRWVLARGLCLLWTAFDVMCCSASILNLCLISLDRYLLILSPLRYKLRMTAPRALALILGAWSLAALASFLPLLLGWHELGKARTSAPGQCRLLASLPYVLVASGVTFFLPSGAICFTYCRILLAARKQAVQVASLTTGTATAGQALETLQVPRTPRPGMESADSRRLTTKHSRKALKASLTLGILLSMFFVTWLPFFVASIAQAVCDCISPGLFDVLTWLGYCNSTMNPIIYPLFMRDFKRALGRFVPCVHCPPEHRASPASPSMWTSHSGARPGLSLQQVLPLPLPPNSDSDSASGGTSGLQLTAQAAAPGEATRDPPPPTRAPTVVNFFVTDSVEPEIRQHPLGSPMN
  percent of parent: 243%
